B1: 2M8U (parent)
chain: TKAQVIEAFKVFDRDGNGYVTVDYLRKVLNELGDMMPADEIEEMIYEADPQNSGYVQYETFVGMLFL

In this data set the parent is B1. Nature of the data set: folding stability dG (cDNA display proteolysis); higher = more stable. The following applies: PBS, room temperature.
For R26Y, the “folding stability dG” value amounted to 3.53 kcal/mol.

Regarding G54P, the “folding stability dG” value was determined as 2.26 kcal/mol.

As for G54E, the “folding stability dG” value was 2.26 kcal/mol.

Regarding G54A, the “folding stability dG” value came to 2.36 kcal/mol.

G54Y: the “folding stability dG” value worked out at 2.93 kcal/mol.

On to T1H, for which the “folding stability dG” value was 3.16 kcal/mol.

Consider T1P, for which the “folding stability dG” value was 2.6 kcal/mol.

As to T1V, the “folding stability dG” value amounted to 3.32 kcal/mol.

As for N17F, the “folding stability dG” value worked out at 3.06 kcal/mol.

For N17W, the “folding stability dG” value was 2.95 kcal/mol.

With N17E, the “folding stability dG” value was determined as 3.08 kcal/mol.

N17Y: the “folding stability dG” value turned out to be 3 kcal/mol.

With N17R, the “folding stability dG” value amounted to 3.04 kcal/mol.

For the variant N17D, the “folding stability dG” value was 3.44 kcal/mol.

Take N17C: the “folding stability dG” value was 2.99 kcal/mol.

Consider N17P, for which the “folding stability dG” value amounted to 1.86 kcal/mol.

As for L25E, the “folding stability dG” value was 2.09 kcal/mol.

In the case of L25W, the “folding stability dG” value was found to be 2.53 kcal/mol.

As to D15M, the “folding stability dG” value came to 3.03 kcal/mol.

In the case of D15Y, the “folding stability dG” value is 2.96 kcal/mol.

For D15H, the “folding stability dG” value was found to be 2.69 kcal/mol.

With D15F, the “folding stability dG” value came out at 2.79 kcal/mol.

As to K2E, the “folding stability dG” value was 3.07 kcal/mol.

With K2T, the “folding stability dG” value was 2.79 kcal/mol.

K2H: the “folding stability dG” value turned out to be 3.11 kcal/mol.

On to K2F, for which the “folding stability dG” value worked out at 2.94 kcal/mol.

For the variant K2N, the “folding stability dG” value was 2.56 kcal/mol.

Take K2I: the “folding stability dG” value is 3.46 kcal/mol.

Consider K2C, for which the “folding stability dG” value worked out at 3.6 kcal/mol.

Take L29N: the “folding stability dG” value is 1.86 kcal/mol.

On to L29Y, for which the “folding stability dG” value worked out at 2.22 kcal/mol.

On to L29H, for which the “folding stability dG” value worked out at 1.67 kcal/mol.

Take L29R: the “folding stability dG” value was determined as 1.52 kcal/mol.

With I45M, the “folding stability dG” value stood at 2.88 kcal/mol.

Take I45P: the “folding stability dG” value came out at 1.88 kcal/mol.

On to P50Q, for which the “folding stability dG” value amounted to 3.25 kcal/mol.

Turning to P50R, the “folding stability dG” value was found to be 3.38 kcal/mol.

Q4P: the “folding stability dG” value is 2.35 kcal/mol.

As to Q4R, the “folding stability dG” value was 3.34 kcal/mol.

With Q4H, the “folding stability dG” value came to 3.12 kcal/mol.

Regarding S53N, the “folding stability dG” value turned out to be 3.26 kcal/mol.

Turning to S53T, the “folding stability dG” value worked out at 3.49 kcal/mol.

In the case of S53H, the “folding stability dG” value amounted to 3.11 kcal/mol.

As for V5Y, the “folding stability dG” value was 4.08 kcal/mol.

Regarding V5N, the “folding stability dG” value came to 2.04 kcal/mol.

On to V5S, for which the “folding stability dG” value amounted to 2.1 kcal/mol.

Consider I6C, for which the “folding stability dG” value came to 3.4 kcal/mol.

Take I6H: the “folding stability dG” value was found to be 2.76 kcal/mol.

As to I6E, the “folding stability dG” value worked out at 2.81 kcal/mol.

For D49A, the “folding stability dG” value came to 2.62 kcal/mol.

As for G33W, the “folding stability dG” value amounted to 3.55 kcal/mol.

Regarding G33L, the “folding stability dG” value worked out at 3.89 kcal/mol.

In the case of G33M, the “folding stability dG” value worked out at 4.14 kcal/mol.

On to G33D, for which the “folding stability dG” value worked out at 3.25 kcal/mol.

On to G33S, for which the “folding stability dG” value is 3.28 kcal/mol.

With G33C, the “folding stability dG” value came out at 3.87 kcal/mol.

Consider G33R, for which the “folding stability dG” value was found to be 3.51 kcal/mol.

For G33F, the “folding stability dG” value came to 3.94 kcal/mol.

For the variant A38K, the “folding stability dG” value was determined as 3.69 kcal/mol.

For the variant A38I, the “folding stability dG” value was 3.69 kcal/mol.

As to A38H, the “folding stability dG” value was 3.57 kcal/mol.

For the variant F66M, the “folding stability dG” value was found to be 2.88 kcal/mol.

For the variant F66Q, the “folding stability dG” value came out at 2.55 kcal/mol.

Turning to F66A, the “folding stability dG” value is 2.62 kcal/mol.

On to F66D, for which the “folding stability dG” value was 2.96 kcal/mol.

For L32W, the “folding stability dG” value was found to be 3.33 kcal/mol.

As for L32Y, the “folding stability dG” value was determined as 3.28 kcal/mol.

For the variant L32G, the “folding stability dG” value was found to be 2.16 kcal/mol.

Take F61M: the “folding stability dG” value is 2.31 kcal/mol.

For the variant F61E, the “folding stability dG” value worked out at 0.86 kcal/mol.

In the case of A48Y, the “folding stability dG” value turned out to be 3.48 kcal/mol.

On to A48M, for which the “folding stability dG” value amounted to 3.28 kcal/mol.

As for A48S, the “folding stability dG” value came to 3.53 kcal/mol.

Regarding A48T, the “folding stability dG” value was found to be 3.33 kcal/mol.

As to P37S, the “folding stability dG” value was determined as 3.33 kcal/mol.

Consider P37V, for which the “folding stability dG” value is 3.34 kcal/mol.

For N52G, the “folding stability dG” value came out at 3.51 kcal/mol.

Turning to N52H, the “folding stability dG” value was determined as 3.46 kcal/mol.

With N52D, the “folding stability dG” value was found to be 3.37 kcal/mol.

As to F12E, the “folding stability dG” value amounted to 3.15 kcal/mol.

With F12T, the “folding stability dG” value was 2.39 kcal/mol.

As for F12Q, the “folding stability dG” value amounted to 3.12 kcal/mol.

As for D34K, the “folding stability dG” value is 3.43 kcal/mol.

On to D34T, for which the “folding stability dG” value is 3.51 kcal/mol.

On to D34A, for which the “folding stability dG” value stood at 3.54 kcal/mol.

D34W: the “folding stability dG” value stood at 4.49 kcal/mol.

D34G: the “folding stability dG” value was 3.42 kcal/mol.

On to Q51H, for which the “folding stability dG” value was determined as 3.54 kcal/mol.

On to Q51D, for which the “folding stability dG” value is 3.56 kcal/mol.

Regarding Q51L, the “folding stability dG” value was found to be 3.53 kcal/mol.

Consider Q51P, for which the “folding stability dG” value came out at 2.52 kcal/mol.

Take Q51W: the “folding stability dG” value amounted to 3.49 kcal/mol.

As to Q51A, the “folding stability dG” value was found to be 3.47 kcal/mol.

On to E42N, for which the “folding stability dG” value came to 3.49 kcal/mol.

On to E42W, for which the “folding stability dG” value came out at 3.1 kcal/mol.

In the case of V20L, the “folding stability dG” value is 2.9 kcal/mol.

In the case of V20E, the “folding stability dG” value stood at 2.16 kcal/mol.

In the case of V20A, the “folding stability dG” value came out at 2.73 kcal/mol.

For the variant V20G, the “folding stability dG” value came to 1.83 kcal/mol.

Regarding Q57T, the “folding stability dG” value stood at 2.41 kcal/mol.

In the case of Q57W, the “folding stability dG” value stood at 3.18 kcal/mol.

On to Q57C, for which the “folding stability dG” value was 3.25 kcal/mol.

Turning to Q57D, the “folding stability dG” value came out at 3.25 kcal/mol.

For G16H, the “folding stability dG” value was 2.95 kcal/mol.

As for G16N, the “folding stability dG” value came out at 3.36 kcal/mol.

Turning to D39E, the “folding stability dG” value amounted to 3.59 kcal/mol.

As to D39C, the “folding stability dG” value came out at 3.74 kcal/mol.

With D39T, the “folding stability dG” value was found to be 3.66 kcal/mol.

Consider D39F, for which the “folding stability dG” value was found to be 4.09 kcal/mol.

On to D39W, for which the “folding stability dG” value is 3.65 kcal/mol.

In the case of D39I, the “folding stability dG” value turned out to be 3.83 kcal/mol.

As for V22I, the “folding stability dG” value turned out to be 3.48 kcal/mol.

For V22M, the “folding stability dG” value is 3 kcal/mol.

For V22Y, the “folding stability dG” value was 3.44 kcal/mol.

Take V22W: the “folding stability dG” value was determined as 3.11 kcal/mol.

Take D13F: the “folding stability dG” value stood at 2.65 kcal/mol.

Take D13Y: the “folding stability dG” value stood at 2.29 kcal/mol.

Consider D13G, for which the “folding stability dG” value was 1.79 kcal/mol.

On to L67H, for which the “folding stability dG” value was found to be 3.62 kcal/mol.

Turning to L67C, the “folding stability dG” value stood at 3.61 kcal/mol.

Consider L67E, for which the “folding stability dG” value was 3.96 kcal/mol.

For the variant L67P, the “folding stability dG” value is 3.9 kcal/mol.

For L67R, the “folding stability dG” value was found to be 3.81 kcal/mol.

Turning to E31T, the “folding stability dG” value was 3.58 kcal/mol.

Turning to E31S, the “folding stability dG” value came out at 3.64 kcal/mol.

E31L: the “folding stability dG” value worked out at 3.81 kcal/mol.

On to E31Q, for which the “folding stability dG” value was found to be 3.53 kcal/mol.

E31R: the “folding stability dG” value turned out to be 3.51 kcal/mol.

With E31G, the “folding stability dG” value came out at 3.4 kcal/mol.

For the variant E31C, the “folding stability dG” value is 3.41 kcal/mol.

For E31I, the “folding stability dG” value was 3.66 kcal/mol.

With K27Y, the “folding stability dG” value was 3.43 kcal/mol.

Consider K27I, for which the “folding stability dG” value worked out at 3.66 kcal/mol.

Take K27W: the “folding stability dG” value amounted to 3.42 kcal/mol.

Take K27A: the “folding stability dG” value stood at 3.38 kcal/mol.

Take K27V: the “folding stability dG” value is 3.62 kcal/mol.

For I41S, the “folding stability dG” value amounted to 2.59 kcal/mol.

I41H: the “folding stability dG” value turned out to be 2.52 kcal/mol.

For I41M, the “folding stability dG” value turned out to be 3.57 kcal/mol.

On to I41N, for which the “folding stability dG” value is 2.17 kcal/mol.

M35V: the “folding stability dG” value was found to be 3.38 kcal/mol.

In the case of M35C, the “folding stability dG” value was determined as 3.25 kcal/mol.

M35S: the “folding stability dG” value is 3.07 kcal/mol.

For M35D, the “folding stability dG” value was 2.96 kcal/mol.

Regarding M35T, the “folding stability dG” value came to 3.14 kcal/mol.

On to R14S, for which the “folding stability dG” value was 3.58 kcal/mol.

As for R14D, the “folding stability dG” value worked out at 3.5 kcal/mol.

R14E: the “folding stability dG” value worked out at 3.62 kcal/mol.

Consider R14V, for which the “folding stability dG” value was 3.83 kcal/mol.

As for M36E, the “folding stability dG” value turned out to be 2.77 kcal/mol.

As for M36N, the “folding stability dG” value is 3.34 kcal/mol.

M36G: the “folding stability dG” value stood at 3.48 kcal/mol.

Consider M36F, for which the “folding stability dG” value is 4.23 kcal/mol.

Take M36A: the “folding stability dG” value came out at 3.8 kcal/mol.

Turning to D23S, the “folding stability dG” value is 3.55 kcal/mol.

As to D23N, the “folding stability dG” value is 3.45 kcal/mol.

For D23T, the “folding stability dG” value came out at 3.65 kcal/mol.

Consider D23W, for which the “folding stability dG” value was 3.66 kcal/mol.

On to D23P, for which the “folding stability dG” value is 3.44 kcal/mol.

Turning to K10M, the “folding stability dG” value was determined as 3.15 kcal/mol.

In the case of K10A, the “folding stability dG” value is 3.13 kcal/mol.

For K10W, the “folding stability dG” value was found to be 3.01 kcal/mol.

For K10Q, the “folding stability dG” value is 3.16 kcal/mol.

Regarding K10Y, the “folding stability dG” value was determined as 2.79 kcal/mol.

On to K10I, for which the “folding stability dG” value was determined as 3.32 kcal/mol.

For K10R, the “folding stability dG” value was found to be 3.46 kcal/mol.

With K10H, the “folding stability dG” value was found to be 2.88 kcal/mol.

The record behind these values is the MegaScale stability set (Tsuboyama et al. 2023).
